Here are results for two substances from patent US20190361034A1.

For assay [1], the target named is MHC class II molecules on MHC class II-expressing Raji cells (human). Put plainly: direct ELISA, plate-immobilised Raji cells; 10% FBS, 5,000 cells; 62.5 ng/ml. For orientation: ELISA stands for enzyme-linked immunosorbent assay.
Assay [2] has the same target. The assay can be described thus: direct ELISA, plate-immobilised Raji cells; 5% BSA, 2,500 cells; 125 ng/ml.
For assay [3] the target is unchanged. The assay can be described thus: transfer cell ELISA, Raji cells; 250 ng/ml; plate row C.
Assay [4] shares this target. The assay can be described thus: direct ELISA, plate-immobilised Raji cells; 5% BSA, 10,000 cells; 250 ng/ml.
Assay [5] shares this target. Put plainly: transfer cell ELISA, Raji cells; 1.953 ng/ml; plate row C.
Assay [6] shares this target. The assay can be described thus: direct ELISA, plate-immobilised Raji cells; 10% FBS, 5,000 cells; 15.625 ng/ml.
For assay [7] the target is unchanged. Put plainly: direct ELISA, plate-immobilised Raji cells; 10% FBS, 10,000 cells; 62.5 ng/ml.
Assay [8] has the same target. The assay can be described thus: transfer cell ELISA, Raji cells; 7.813 ng/ml; plate row D.
The target is the same in assay [9]. The assay can be described thus: direct ELISA, plate-immobilised Raji cells; 5% BSA, 2,500 cells; 250 ng/ml.
For assay [10] the target is unchanged. The assay can be described thus: transfer cell ELISA, Raji cells; 62.5 ng/ml; plate row C.
The target is the same in assay [11]. The assay can be described thus: direct ELISA, plate-immobilised Raji cells; 10% FBS, 10,000 cells; 31.25 ng/ml.
Assay [12] shares this target. Put plainly: direct ELISA, plate-immobilised Raji cells; 5% BSA, 2,500 cells; 31.25 ng/ml.
The target is the same in assay [13]. The assay can be described thus: transfer cell ELISA, Raji cells; 250 ng/ml; plate row D.
Assay [14] has the same target. Put plainly: direct ELISA, plate-immobilised Raji cells; 10% FBS, 2,500 cells; 500 ng/ml.
For assay [15] the target is unchanged. The assay can be described thus: direct ELISA, plate-immobilised Raji cells; 3% gelatin, 10,000 cells; 1000 ng/ml.
Assay [16] shares this target. The assay can be described thus: direct ELISA, plate-immobilised Raji cells; 3% gelatin, 5,000 cells; 500 ng/ml.
The target is the same in assay [17]. Put plainly: direct ELISA, plate-immobilised Raji cells; 0.5% Casein, 10,000 cells; 125 ng/ml.
Assay [18] shares this target. The assay can be described thus: direct ELISA, plate-immobilised Raji cells; 3% gelatin, 2,500 cells; 125 ng/ml.
The target is the same in assay [19]. The assay can be described thus: direct ELISA, plate-immobilised Raji cells; 0.5% Casein, 10,000 cells; 1000 ng/ml.
The target is the same in assay [20]. Put plainly: BLI; IMP321 sample at 150% binding potency, Raji cells in solution; relative to reference standard. In general terms: BLI is a label-free optical method that tracks binding on a fibre tip over time.
Assay [21] has the same target. Put plainly: direct ELISA, plate-immobilised Raji cells; 0.5% Casein, 10,000 cells; 62.5 ng/ml.
Assay [22] shares this target. Put plainly: transfer cell ELISA, Raji cells; 7.813 ng/ml.
Assay [23] shares this target. Put plainly: direct ELISA, plate-immobilised Raji cells; 0.5% Casein, 5,000 cells; 15.625 ng/ml.
Assay [24] has the same target. The assay can be described thus: transfer cell ELISA, Raji cells; 1.953 ng/ml.
For assay [25] the target is unchanged. Put plainly: transfer cell ELISA, Raji cells; 3.906 ng/ml.
Assay [26] has the same target. Put plainly: direct ELISA, plate-immobilised Raji cells; 0.5% Casein, 10,000 cells; 500 ng/ml.
The target is the same in assay [27]. Put plainly: direct ELISA, plate-immobilised Raji cells; 3% gelatin, 10,000 cells; 125 ng/ml.
Assay [28] has the same target. Put plainly: direct ELISA, plate-immobilised Raji cells; 3% gelatin, 2,500 cells; 62.5 ng/ml.
For assay [29] the target is unchanged. The assay can be described thus: direct ELISA, plate-immobilised Raji cells; 3% gelatin, 10,000 cells; 31.25 ng/ml.
The target is the same in assay [30]. The assay can be described thus: BLI; immobilised sample, Raji cells in solution; dark control of FIG. 23.
Assay [31] has the same target. The assay can be described thus: transfer cell ELISA, Raji cells; 1000 ng/ml.
For assay [32] the target is unchanged. The assay can be described thus: direct ELISA, plate-immobilised Raji cells; 0.5% Casein, 10,000 cells; 31.25 ng/ml.
The target is the same in assay [33]. The assay can be described thus: direct ELISA, plate-immobilised Raji cells; 0.5% Casein, 2,500 cells; 62.5 ng/ml.

Consider “IMP321 treated with Peptide-N-Glycosidase F (PNGase F) (Fc fusion)”, for which the OD (ELISA signal) worked out at 0.28 OD in [1]; 0.415 OD in [2]; 0.276 OD in assay [3]; 0.91 OD in assay [4]; 0.011 OD in [5]; 0.327 OD in [6]. Also, the OD (ELISA signal) was determined as 0.29 OD in [7]; 0.02 OD in assay [8]; 0.893 OD in [9]; 0.082 OD in [10]; 0.279 OD in assay [11]; 0.304 OD in [12]. Further, the OD (ELISA signal) in [13] was found to be 0.361 OD; in assay [14], 1.8 OD.

Take “IMP321, recombinant soluble human LAG-3Ig fusion protein (Fc fusion)”: the OD (ELISA signal) in [15] amounted to 1.97 OD; in assay [16], 1.88 OD; in assay [17] it was 0.176 OD; in assay [18], 0.77 OD; in assay [19] it was 0.16 OD; in [21] it was 0.142 OD. Also, the OD (ELISA signal) in [22] was 0.053 OD; in assay [23], 0.207 OD; in assay [24], 0.026 OD; in assay [25], 0.034 OD; in assay [26], 0.188 OD; in assay [27] it was 0.688 OD. Also, the OD (ELISA signal) in [28] worked out at 0.399 OD; in assay [29] it was 0.389 OD; in assay [31] it was 2.03 OD; in [32] it was 0.18 OD; in assay [33], 0.135 OD. Besides, the Potency determined by BLI assay in assay [20] amounted to 150%. The substance also showed a Bioactivity (binding) in assay [30] of 100%.
